Data taken from patent US20130045195.

Tests used:
[1] = target: T1, celiac disease relevant peptide QLPQQPQQF
T1 chain: QLPQQPQQF

[2] = target: T2, celiac disease relevant peptide PQQPQQSFPQQQPPF
T2 chain: PQQPQQSFPQQQPPF

[3] = target: T3, celiac disease relevant peptide LGQQQPFPPQQPYPQPQPF
T3 chain: LGQQQPFPPQQPYPQPQPF

Measured: degradation of peptide analyzed by reverse phase liquid chromatography (50 µg/mL peptide, 25 µg/mL enzyme, 37 °C, pH 4.5, 1 hr)

B1: XP-972061 (proline specific protease, LOC660762, similar to prolylcarboxypeptidase / thymus-specific serine protease) (protein)
chain: RIFRNGRMVGGNLGEPKCNCKESSIKEVQEEWFTQNLDHFNPTDETTWKQRFYSNDQFFDPKNGGPVFLMIGGEGEASIKWMTQGAWVNYAEKFGALMFQLEHRYYGKSHPTDDLSTQNLKYLTSQQALADLATFITAMNEKYSLPPDVKWIAFGGSYPGSLAAWLRFKYPHLVHGAMSASGPLLAQVDFKDYFRVIKESLATHSDDCVTAVQQGVDQIGVLLKQEIGQANLNELFKLCDPVQNSINNEKDISNLYETIADDFAGVVQYNKDNRVGSPAGANITIDVVCDIMVNQTIGPPVNRLAKVNEVLLSAYDQKCLDYNYDKMINNLRNVSWDSEASEGGRQWTYQTCTEFGFYQTSDYEPQIFGDQFSVDFFIQQCTDIFGSIYDEDFLNSATERTNTYYGGLDIEVSNVVFVHGSIDPWHALGITKTIDEEAPAIYIEGTAHCANMYPPADTDLPQLKEAREQILNLIGTWLAQ
completely proteolyzed: all assays above
